Test results taken from article PMC9482650, “Quantitative fragmentomics allow affinity mapping of interactomes” (Nature Communications, 2022).

What was measured:
Experiment in all cases: holdup assay
Design in all cases: key: below the threshold = too weak to quantify, mostly under pKd 3.1 to 4
PICK1, Q9NRD5 = target: PICK1, Q9NRD5
DLG4_1, P78352 = target: DLG4_1, P78352
MAGI2_6, Q86UL8 = target: MAGI2_6, Q86UL8
TIAM2, Q8IVF5 = target: T1, TIAM2, Q8IVF5
T1 sequence (Q8IVF5 885-986, limits assumed, looked up): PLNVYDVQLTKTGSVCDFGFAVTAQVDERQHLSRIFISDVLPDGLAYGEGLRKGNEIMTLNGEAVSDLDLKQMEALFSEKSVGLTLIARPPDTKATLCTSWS

TJP3_3, O95049 = target: T2, TJP3_3, O95049
T2 sequence (O95049 375-456, limits assumed, looked up): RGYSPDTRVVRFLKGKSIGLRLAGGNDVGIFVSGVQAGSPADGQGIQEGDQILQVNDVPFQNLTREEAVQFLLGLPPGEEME

DLG3_3, Q92796 = target: T3, DLG3_3, Q92796
T3 sequence (Q92796 374-475, limits assumed, looked up): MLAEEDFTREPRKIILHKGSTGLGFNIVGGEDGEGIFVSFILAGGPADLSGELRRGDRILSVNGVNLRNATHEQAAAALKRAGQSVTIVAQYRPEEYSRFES

GRIP1_5, Q9Y3R0 = target: T4, GRIP1_5, Q9Y3R0
T4 sequence (Q9Y3R0 568-668, limits assumed, looked up): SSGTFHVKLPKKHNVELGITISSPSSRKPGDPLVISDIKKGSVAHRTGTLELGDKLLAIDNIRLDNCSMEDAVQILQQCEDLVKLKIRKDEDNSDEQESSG

Inadl_8, Q8NI35 = target: Inadl_8, Q8NI35
MPP2, Q14168 = target: T5, MPP2, Q14168
T5 sequence (Q14168 180-250, limits assumed, looked up): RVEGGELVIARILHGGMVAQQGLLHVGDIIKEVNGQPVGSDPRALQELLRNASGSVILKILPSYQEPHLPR

PCLO, Q9Y6V0 = target: T6, PCLO, Q9Y6V0
T6 sequence (Q9Y6V0 4491-4600, limits assumed, looked up): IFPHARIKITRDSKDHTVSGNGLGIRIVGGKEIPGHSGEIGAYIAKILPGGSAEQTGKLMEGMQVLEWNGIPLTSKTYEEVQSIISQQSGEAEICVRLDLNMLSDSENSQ

GORASP1, Q9BQQ3 = target: GORASP1, Q9BQQ3
NHERF3_1, Q5T2W1 = target: T7, NHERF3_1, Q5T2W1
T7 sequence (Q5T2W1 4-100, limits assumed, looked up): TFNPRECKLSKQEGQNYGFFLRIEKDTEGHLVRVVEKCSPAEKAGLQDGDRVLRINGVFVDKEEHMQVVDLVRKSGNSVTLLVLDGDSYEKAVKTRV

SHANK1, Q9Y566 = target: T8, SHANK1, Q9Y566
T8 sequence (Q9Y566 658-767, limits assumed, looked up): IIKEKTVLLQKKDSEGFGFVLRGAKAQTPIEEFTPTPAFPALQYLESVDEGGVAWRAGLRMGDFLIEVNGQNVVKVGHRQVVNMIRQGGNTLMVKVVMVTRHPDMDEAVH

TJP1_3, Q07157 = target: TJP1_3, Q07157
MAGI2_2, Q86UL8 = target: MAGI2_2, Q86UL8
DLG1_3, Q12959 = target: DLG1_3, Q12959
NOS1, P29475 = target: NOS1, P29475
DLG4_3, P78352 = target: DLG4_3, P78352
IL16_1, Q14005 = target: IL16_1, Q14005
Inadl_6, Q8NI35 = target: Inadl_6, Q8NI35
FRMPD2_2, Q68DX3 = target: FRMPD2_2, Q68DX3
PTPN3, P26045 = target: PTPN3, P26045
NHERF4_1, Q86UT5-2 = target: NHERF4_1, Q86UT5-2
DFNB31_2, Q9P202 = target: T9, DFNB31_2, Q9P202
T9 sequence (Q9P202 274-371, limits assumed, looked up): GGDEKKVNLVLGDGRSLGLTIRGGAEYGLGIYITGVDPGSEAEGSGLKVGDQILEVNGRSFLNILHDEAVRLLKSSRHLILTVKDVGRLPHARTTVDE

GRID2IP_1, A4D2P6 = target: GRID2IP_1, A4D2P6
LNX2_2, Q8N448 = target: T10, LNX2_2, Q8N448
T10 sequence (Q8N448 334-432, limits assumed, looked up): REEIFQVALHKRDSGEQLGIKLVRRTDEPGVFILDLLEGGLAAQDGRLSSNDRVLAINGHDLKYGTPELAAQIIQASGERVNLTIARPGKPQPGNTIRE

NHERF3_3, Q5T2W1 = target: T11, NHERF3_3, Q5T2W1
T11 sequence (Q5T2W1 238-333, limits assumed, looked up): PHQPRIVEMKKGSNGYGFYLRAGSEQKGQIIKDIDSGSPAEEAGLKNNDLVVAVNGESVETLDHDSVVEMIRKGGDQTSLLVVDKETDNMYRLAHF

[1] = plain residues with an end cap or a label only (N-terminal biotin on a linker: ado-ado)
[2] = modified: phospho on T at position -2 from the C-terminal residue

Measured: pKd

Chain of MAGI2_6, Q86UL8 (Q86UL8 1141-1229): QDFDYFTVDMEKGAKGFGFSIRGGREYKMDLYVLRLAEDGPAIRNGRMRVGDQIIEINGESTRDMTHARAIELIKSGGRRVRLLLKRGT
Chain of DLG1_3, Q12959 (Q12959 457-571): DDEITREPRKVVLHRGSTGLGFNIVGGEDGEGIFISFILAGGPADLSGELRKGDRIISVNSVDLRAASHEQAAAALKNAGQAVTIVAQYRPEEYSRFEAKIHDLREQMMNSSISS
Chain of DLG4_3, P78352 (P78352 306-403): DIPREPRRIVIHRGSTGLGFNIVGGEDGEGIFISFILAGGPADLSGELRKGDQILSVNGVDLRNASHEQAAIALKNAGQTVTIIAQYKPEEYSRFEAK
Chain of TJP1_3, Q07157 (Q07157 416-512): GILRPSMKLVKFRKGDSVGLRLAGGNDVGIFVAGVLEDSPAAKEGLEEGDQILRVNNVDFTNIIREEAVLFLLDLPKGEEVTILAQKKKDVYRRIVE
Chain of NHERF4_1, Q86UT5-2 (Q86UT5 other isoform, or with tags, fused parts or gaps): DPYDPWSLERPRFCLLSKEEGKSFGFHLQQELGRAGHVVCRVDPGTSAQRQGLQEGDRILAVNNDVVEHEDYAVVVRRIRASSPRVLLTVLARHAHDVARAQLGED
Chain of Inadl_6, Q8NI35 (Q8NI35 1058-1167): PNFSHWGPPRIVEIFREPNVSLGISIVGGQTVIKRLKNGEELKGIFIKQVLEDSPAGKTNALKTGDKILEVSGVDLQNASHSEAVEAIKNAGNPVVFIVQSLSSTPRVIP
Chain of Inadl_8, Q8NI35 (Q8NI35 1425-1530): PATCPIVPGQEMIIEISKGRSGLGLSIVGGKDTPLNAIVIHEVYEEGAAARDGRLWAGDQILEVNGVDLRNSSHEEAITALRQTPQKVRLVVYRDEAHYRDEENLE
Chain of GRID2IP_1, A4D2P6 (A4D2P6 1-87): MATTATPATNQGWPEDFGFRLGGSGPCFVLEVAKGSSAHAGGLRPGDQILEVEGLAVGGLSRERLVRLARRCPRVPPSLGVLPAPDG
Chain of PICK1, Q9NRD5 (Q9NRD5 17-115): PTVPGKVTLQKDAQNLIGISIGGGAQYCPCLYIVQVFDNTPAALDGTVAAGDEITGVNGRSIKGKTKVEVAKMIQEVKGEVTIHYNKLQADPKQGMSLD
Chain of MAGI2_2, Q86UL8 (Q86UL8 410-522): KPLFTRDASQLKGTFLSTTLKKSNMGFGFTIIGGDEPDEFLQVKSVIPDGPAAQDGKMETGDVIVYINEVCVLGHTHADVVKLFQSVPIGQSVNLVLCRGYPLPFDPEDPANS
Chain of GORASP1, Q9BQQ3 (Q9BQQ3 1-208): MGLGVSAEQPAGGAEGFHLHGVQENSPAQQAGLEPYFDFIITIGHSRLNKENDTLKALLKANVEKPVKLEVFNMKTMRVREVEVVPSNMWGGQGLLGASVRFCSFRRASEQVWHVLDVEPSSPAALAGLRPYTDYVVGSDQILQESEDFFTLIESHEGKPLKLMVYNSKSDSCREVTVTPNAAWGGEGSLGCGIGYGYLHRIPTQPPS
Chain of PTPN3, P26045 (P26045 505-587): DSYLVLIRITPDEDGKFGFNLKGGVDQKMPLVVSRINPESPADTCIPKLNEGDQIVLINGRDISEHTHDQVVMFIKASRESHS
Chain of DLG4_1, P78352 (P78352 62-152): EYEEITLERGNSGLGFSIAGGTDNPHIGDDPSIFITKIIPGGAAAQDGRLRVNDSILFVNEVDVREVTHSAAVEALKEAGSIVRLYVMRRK
Chain of IL16_1, Q14005 (Q14005 210-306): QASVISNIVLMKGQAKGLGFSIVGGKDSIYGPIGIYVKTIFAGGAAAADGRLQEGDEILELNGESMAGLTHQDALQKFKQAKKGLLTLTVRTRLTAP
Chain of NOS1, P29475 (P29475 9-101): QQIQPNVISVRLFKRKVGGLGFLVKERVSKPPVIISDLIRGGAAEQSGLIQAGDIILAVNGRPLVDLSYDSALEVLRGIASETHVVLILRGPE
Chain of FRMPD2_2, Q68DX3 (Q68DX3 944-1038): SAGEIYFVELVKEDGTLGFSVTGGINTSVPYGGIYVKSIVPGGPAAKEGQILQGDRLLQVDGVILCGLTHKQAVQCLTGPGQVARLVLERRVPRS

SSALYGESDL [ACTN2, P35609]
4.45: PTPN3, P26045; [1]
3.88: NHERF4_1, Q86UT5-2; [1]
4.18: TIAM2, Q8IVF5; [1]
3.57: NHERF3_1, Q5T2W1; [1]
3.75: DLG1_3, Q12959; [1]
3.91: SHANK1, Q9Y566; [1]
3.6: DLG3_3, Q92796; [1]
below the threshold: PICK1, Q9NRD5; [1] | DLG4_1, P78352; [1] | TJP3_3, O95049; [1] | GRIP1_5, Q9Y3R0; [1] | Inadl_8, Q8NI35; [1] | MPP2, Q14168; [1] | PCLO, Q9Y6V0; [1] | GORASP1, Q9BQQ3; [1] | TJP1_3, Q07157; [1] | MAGI2_2, Q86UL8; [1] | NOS1, P29475; [1] | DLG4_3, P78352; [1] | IL16_1, Q14005; [1] | Inadl_6, Q8NI35; [1] | FRMPD2_2, Q68DX3; [1] | DFNB31_2, Q9P202; [1] | GRID2IP_1, A4D2P6; [1] | LNX2_2, Q8N448; [1] | NHERF3_3, Q5T2W1; [1]
5.05: MAGI2_6, Q86UL8; [1]

GQEEQVTTRL [TRPC5, Q9UL62]
3.57: NOS1, P29475; [1]
below the threshold: DLG4_1, P78352; [1] | TJP3_3, O95049; [1] | DLG3_3, Q92796; [1] | GRIP1_5, Q9Y3R0; [1] | Inadl_8, Q8NI35; [1] | MPP2, Q14168; [1] | PCLO, Q9Y6V0; [1] | GORASP1, Q9BQQ3; [1] | TJP1_3, Q07157; [1] | MAGI2_2, Q86UL8; [1] | DLG1_3, Q12959; [1] | DLG4_3, P78352; [1] | IL16_1, Q14005; [1] | FRMPD2_2, Q68DX3; [1] | DFNB31_2, Q9P202; [1] | GRID2IP_1, A4D2P6; [1] | LNX2_2, Q8N448; [1]
3.65: TIAM2, Q8IVF5; [1]
3.79: Inadl_6, Q8NI35; [1]
5.61: SHANK1, Q9Y566; [1]
4.54: PTPN3, P26045; [1]
5.17: NHERF3_1, Q5T2W1; [1]
4.06: PICK1, Q9NRD5; [1]
4.38: NHERF4_1, Q86UT5-2; [1]
3.59: MAGI2_6, Q86UL8; [1]
4.65: NHERF3_3, Q5T2W1; [1]

QPCFNKLFPL [LPXN, O60711]
3.68: GORASP1, Q9BQQ3; [1]
below the threshold: PICK1, Q9NRD5; [1] | DLG4_1, P78352; [1] | MAGI2_6, Q86UL8; [1] | TIAM2, Q8IVF5; [1] | TJP3_3, O95049; [1] | DLG3_3, Q92796; [1] | GRIP1_5, Q9Y3R0; [1] | Inadl_8, Q8NI35; [1] | MPP2, Q14168; [1] | PCLO, Q9Y6V0; [1] | SHANK1, Q9Y566; [1] | TJP1_3, Q07157; [1] | MAGI2_2, Q86UL8; [1] | DLG1_3, Q12959; [1] | DLG4_3, P78352; [1] | IL16_1, Q14005; [1] | Inadl_6, Q8NI35; [1] | FRMPD2_2, Q68DX3; [1] | PTPN3, P26045; [1] | NHERF4_1, Q86UT5-2; [1] | DFNB31_2, Q9P202; [1] | GRID2IP_1, A4D2P6; [1] | LNX2_2, Q8N448; [1] | NHERF3_3, Q5T2W1; [1]
4.01: NHERF3_1, Q5T2W1; [1]
3.5: NOS1, P29475; [1]

PRISRSQSEL [CCDC134, Q9H6E4]
4.14: PICK1, Q9NRD5; [1]
3.86: TIAM2, Q8IVF5; [1] | NHERF4_1, Q86UT5-2; [1]
3.85: MAGI2_2, Q86UL8; [1]
4.42: NHERF3_1, Q5T2W1; [1]
below the threshold: DLG4_1, P78352; [1] | MAGI2_6, Q86UL8; [1] | TJP3_3, O95049; [1] | DLG3_3, Q92796; [1] | GRIP1_5, Q9Y3R0; [1] | Inadl_8, Q8NI35; [1] | MPP2, Q14168; [1] | PCLO, Q9Y6V0; [1] | GORASP1, Q9BQQ3; [1] | SHANK1, Q9Y566; [1] | TJP1_3, Q07157; [1] | DLG1_3, Q12959; [1] | NOS1, P29475; [1] | DLG4_3, P78352; [1] | IL16_1, Q14005; [1] | Inadl_6, Q8NI35; [1] | FRMPD2_2, Q68DX3; [1] | DFNB31_2, Q9P202; [1] | GRID2IP_1, A4D2P6; [1] | LNX2_2, Q8N448; [1] | NHERF3_3, Q5T2W1; [1]
4.22: PTPN3, P26045; [1]

RLQRRRETQV [HPV18-E6_-2P, P06463]
below the threshold: PICK1, Q9NRD5; [2] | DLG4_1, P78352; [2] | MAGI2_6, Q86UL8; [2] | TIAM2, Q8IVF5; [2] | TJP3_3, O95049; [2] | GRIP1_5, Q9Y3R0; [2] | Inadl_8, Q8NI35; [2] | MPP2, Q14168; [2] | PCLO, Q9Y6V0; [2] | GORASP1, Q9BQQ3; [2] | NHERF3_1, Q5T2W1; [2] | SHANK1, Q9Y566; [2] | TJP1_3, Q07157; [2] | MAGI2_2, Q86UL8; [2] | DLG1_3, Q12959; [2] | IL16_1, Q14005; [2] | Inadl_6, Q8NI35; [2] | FRMPD2_2, Q68DX3; [2] | PTPN3, P26045; [2] | DFNB31_2, Q9P202; [2] | GRID2IP_1, A4D2P6; [2] | LNX2_2, Q8N448; [2] | NHERF3_3, Q5T2W1; [2]
3.75: NOS1, P29475; [2]
3.52: DLG3_3, Q92796; [2]
3.6: NHERF4_1, Q86UT5-2; [2]
3.51: DLG4_3, P78352; [2]
